Reference: the supplement of paper PMC11780869

Test system: Bacillus subtilis
Test: cleaved RNA product abundance (RNA/gDNA barcode ratio) relative to median wild-type variant (ratio to wild type); higher = more accumulation of the downstream cleavage product
Settings: experiment (reporter, strain, medium): exp 8a: truncated aprE reporter, strain BJT201 with 2% xylose (RNase J1 expressed); cleavage site: glnRA (positions -5 to +31 mutated)
How it was run: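 The B. subtilis chromosome carried reporter mRNAs, truncated aprE or tetM, containing barcoded RNase Y cleavage-site windows mutagenized using oligos with a 9% error rate. After growth in LB at 37°C from OD600 0.0003 to 0.3, cleaved RNA was gel-selected, reverse transcribed and barcode-sequenced next to genomic DNA barcodes, with UMI collapsing. Each construct's RNA:gDNA barcode ratio was scaled to the median construct with the unmutated site. That scaled ratio is reported as cleaved product abundance.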

Row | Sequence | cleaved RNA product abundance
1 | CGACATGTCCCGCTTCTTTCATTAATCCGTTAGAAAATGTTTTGCTATATACATTTACCTTTTAAGAGGAGGAAT | 0.396
2 | CGACATGTCCCGCTTCTTTCATTAATCCGTTAGAAACAGTTTTGCTATATATATTTACATTTTAAGAGGAGGAAT | 0.362
3 | CGACATGTCCCGCTTCTTTCATTAATCCGTTAGAAACTATTTTGCTATATACATTTACCTTTTAAGAGGAGGAAT | 0.339
4 | CGACATGTCCCGCTTCTTTCATTAATCCGTTAGAAACTCTTTTGCTATATACATTTACCTTTTAAGAGGAGGAAT | 0.377
5 | CGACATGTCCCGCTTCTTTCATTAATCCGTTAGAAACTGATTTGCTATATACATTTACCTTTTAAGAGGAGGAAT | 0.194
6 | CGACATGTCCCGCTTCTTTCATTAATCCGTTAGAAACTGCTTTGCTATATACATTTACCTTTTAAGAGGAGGAAT | 0.146
7 | CGACATGTCCCGCTTCTTTCATTAATCCGTTAGAAACTGTATTGCTATATACATTTACCTTTTAAGAGGAGGAAT | 0.321
8 | CGACATGTCCCGCTTCTTTCATTAATCCGTTAGAAACTGTTGTGCTATATACATTTACCTTTTAAGAGGAGGAAT | 0.361
9 | CGACATGTCCCGCTTCTTTCATTAATCCGTTAGAAACTGTTTAGCTATATACATTTACCTTTTAAGAGGAGGAAT | 0.295
10 | CGACATGTCCCGCTTCTTTCATTAATCCGTTAGAAACTGTTTCGCTATATACATTTACCTTTTAAGAGGAGGAAT | 0.12
11 | CGACATGTCCCGCTTCTTTCATTAATCCGTTAGAAACTGTTTTACTATATACATTTACCTTTTAAGAGGAGGAAT | 0.422
12 | CGACATGTCCCGCTTCTTTCATTAATCCGTTAGAAACTGTTTTCCTATATACATTTACCTTTTAAGAGGAGGAAT | 0.317
13 | CGACATGTCCCGCTTCTTTCATTAATCCGTTAGAAACTGTTTTGATATATACATTTACCTTTTAAGAGGAGGAAT | 0.221
14 | CGACATGTCCCGCTTCTTTCATTAATCCGTTAGAAACTGTTTTGCTAAATACATTTACCTTTTAAGAGGAGGAAT | 0.241
15 | CGACATGTCCCGCTTCTTTCATTAATCCGTTAGAAACTGTTTTGCTAGATACATTTACCTTTTAAGAGGAGGAAT | 0.255
16 | CGACATGTCCCGCTTCTTTCATTAATCCGTTAGAAACTGTTTTGCTATAAACATTTACCTTTTAAGAGGAGGAAT | 0.203
17 | CGACATGTCCCGCTTCTTTCATTAATCCGTTAGAAACTGTTTTGCTATACACATTTACCTTTTAAGAGGAGGAAT | 0.253
18 | CGACATGTCCCGCTTCTTTCATTAATCCGTTAGAAACTGTTTTGCTATATAAATTTACCTTTTAAGAGGAGGAAT | 0.256
19 | CGACATGTCCCGCTTCTTTCATTAATCCGTTAGAAACTGTTTTGCTATATACACTTACCTTTTAAGAGGAGGAAT | 0.157
20 | CGACATGTCCCGCTTCTTTCATTAATCCGTTAGAAACTGTTTTGCTATATACAGTTACCTTTTAAGAGGAGGAAT | 0.361
21 | CGACATGTCCCGCTTCTTTCATTAATCCGTTAGAAACTGTTTTGCTATATACATATACCTTTTAAGAGGAGGAAT | 0.244
22 | CGACATGTCCCGCTTCTTTCATTAATCCGTTAGAAACTGTTTTGCTATATACATCTACCTTTTAAGAGGAGGAAT | 0.228
23 | CGACATGTCCCGCTTCTTTCATTAATCCGTTAGAAACTGTTTTGCTATATACATTAACCTTTTAAGAGGAGGAAT | 0.374
24 | CGACATGTCCCGCTTCTTTCATTAATCCGTTAGAAACTGTTTTGCTATATACATTTACATTTTAAGAGGAGGAAT | 0.34
25 | CGACATGTCCCGCTTCTTTCATTAATCCGTTAGAAACTGTTTTGCTATATACATTTACCTTTTAAGAGGAGGAAT | 0.292
26 | CGACATGTCCCGCTTCTTTCATTAATCCGTTAGAAACTGTTTTGCTATATACATTTACTTTTTAAGAGGAGGAAT | 0.331
27 | CGACATGTCCCGCTTCTTTCATTAATCCGTTAGAAACTGTTTTGCTATATACATTTATCTTTTAAGAGGAGGAAT | 0.384
